# Patent US20260008818A1, “CYCLIC PEPTIDE OR SALT THEREOF, AND USES THEREOF” (FUJIFILM Corporation, priority 2023, published 2026)
# Bridge positions count the residues as written; N and C are the ends. Square brackets hold non-standard residues; d marks the D form. Ends that are not written are not given here. NMeL = CN[C@@H](CC(C)C)C(=O)O; hCys = N[C@@H](CCS)C(=O)O; Orn = NCCC[C@H](N)C(=O)O
# Columns and labels:
# [1] = Molecular stability of cyclic peptide after reducing agent (DTT) treatment, LC; type: physicochemical; details: residual rate after 12.6 mmol/L DTT aqueous solution, room temperature, 1 hour
# Experimental: The molecular stability of the cyclic peptide was evaluated by analyzing an aqueous solution of the cyclic peptide treated with a reducing agent by liquid chromatography (LC).
# The reducing agent treatment was performed under the following conditions based on the concentration of glutathione contained in the cells. 25 μL of a 0.2 mg/mL cyclic peptide aqueous solution was prepared, 58.8 μL of a 12.6 mmol/L DTT aqueous solution was added to the aqueous solution, and the mixture was incubated at room temperature for 1 hour to obtain an aqueous solution of the cyclic peptide treated with a reducing agent. The DTT aqueous solution was used by diluting a 1 mol/L (+-)-dithiothreitol (DTT) solution (FUJIFILM Wako Pure Chemical Corporation, 044-33871) with water. The total area of all the peaks in LC/MS of the cyclic peptide before the reducing agent treatment was set to 100%, and the proportion of the total area of all the peaks in LC/MS of the aqueous solution of the cyclic peptide treated with the reducing agent was determined to calculate the residual rate of the cyclic peptide, and the molecular stability was evaluated according to the following evaluation criteria. The evaluation result preferably satisfies the evaluation criteria A, B, or C.
# • A: The residual rate of cyclic peptide is 90% or more. • B: The residual rate of the cyclic peptide is 70% or more and less than 90% • C: The residual rate of the cyclic peptide is 50% or more and less than 70% • D: The residual rate of the cyclic peptide is less than 50%
# The LC used for the evaluation of molecular stability was set to the following conditions. • LC device: Prominence series (pump, column oven, autosampler, detector) (manufactured by Shimadzu Corporation) • Detector: photodiode array detector (SPD-M20A), measurement wavelength of 280 nm • Column: TSKgel ODS-100V, inner diameter of 4.6 mm×length of 150 mm, particle diameter of 5 μm (manufactured by Tosoh Corporation) • Eluent A: solution containing 0.1% trifluoroacetic acid as solute, and solvent is 100% water • Eluent B: solution containing 0.1% trifluoroacetic acid as solute, and solvent is 100% acetonitrile • Flow rate: 1.0 mL/min • Injection amount: 25 μL • Gradient: 20% to 50%: Eluent B (0 to 15 minutes), 100%: Eluent B (15 minutes) • Column temperature: 40° C.
# [2] = tested on: Recombinant Human FGFR 1 alpha (IIIc) Fc Chimera Protein; assay: Binding affinity of chemically synthesized cyclic peptide to immobilized FGFR by SPR; details: 10 nmol/L cyclic peptide, 25° C., binding amount per one molecule of FGFR, chemically synthesized product
# Experimental: The binding affinity of the cyclic peptide to FGFR was evaluated using a surface plasmon resonance (SPR) method.
# A CM5 sensor chip (Cytiva, 29149603) was set in Biacore-T200 (manufactured by Cytiva) which is a surface plasmon resonance device, and an HBS-EP buffer (Cytiva, BR100826) was added as a running buffer at a flow rate of 10 μL/min to equilibrate the flow channel. Next, 70 μL of a mixed aqueous solution of 0.2 mol/L 1-(3-dimethylaminopropyl)-3-ethylcarbodiimide (EDC) and 0.05 mol/L N-hydroxysuccinimide (NHS) was added to activate the sensor chip. Then, Recombinant Human FGFR 1 alpha (IIIc) Fc Chimera Protein CF (R&D systems, 658-FR-050) prepared at 50 nmol/L in an Acetate 4.5 buffer (Cytiva, BR100350) was added thereto to perform immobilization at about 5000 RU. Thereafter, the blocking treatment was performed with an ethanolamine solution. In addition, in another flow channel of the same sensor chip, blocking treatment was performed immediately after activation without immobilizing FGFR.
# A cyclic peptide diluted to 10 nmol/L using HBS-EP was added to each flow channel of the FGFR-immobilized sensor chip produced above at 25° C. for 10 minutes, then HBS-EP was allowed to flow as a running buffer for 30 minutes, and the binding of the cyclic peptide to FGFR was measured. Thereafter, a regeneration treatment of removing the bound cyclic peptide was performed by repeating the flow of a regeneration liquid in which sodium chloride powder was dissolved in Glysine 1.5 (Cytiva, BR100354) to a final concentration of 0.15 mol/L for 1 minute in each flow channel twice. The binding amount of the cyclic peptide was evaluated from the difference between the measured value of Biacore-T200 in the flow channel in which FGFR was immobilized and the measured value of Biacore-T200 in the flow channel in which FGFR was not immobilated, in a case where a 10 nmol/L cyclic peptide was allowed to flow.
# The binding amount of the cyclic peptide evaluated above was normalized to the binding amount of the cyclic peptide molecules per one molecule of FGFR using the molecular weights of the cyclic peptide and FGFR, and the binding affinity to FGFR was evaluated according to the following evaluation criteria. The evaluation result preferably satisfies the evaluation criteria A, B, or C.
# • A: The binding amount is 0.7 molecules of the cyclic peptide/one molecule of FGFR or more. • B: The binding amount is 0.5 molecules of the cyclic peptide/one molecule of FGFR or more and less than 0.7 molecules of cyclic peptide/one molecule of FGFR. • C: The binding amount is 0.1 molecules of cyclic peptide/one molecule of FGFR or more and less than 0.5 molecules of cyclic peptide/one molecule of FGFR. • D: The binding amount is less than 0.1 molecules of the cyclic peptide/one molecule of FGFR.
substance,measurement,setting,value
"387 (H[Orn]SYER[NMeL]IFHGHEAPFWV[hCys]VKKK; bridge 2-19; not fully specified (residue 2, bridges)) [compound 387]",Evaluation result of reductive stability,[1],A (The residual rate of cyclic peptide is 90% or more.)
same,Evaluation result of binding affinity to FGFR,[2],A (The binding amount is 0.7 molecules of the cyclic peptide/one molecule of FGFR or more.)
378 (HKSYERLQFHGHEAPFRVXVKKK; not fully specified; Description of Artificial Sequence: Cyclic peptide) [compound 378],Evaluation result of reductive stability,[1],A (The residual rate of cyclic peptide is 90% or more.)
same,Evaluation result of binding affinity to FGFR,[2],A (The binding amount is 0.7 molecules of the cyclic peptide/one molecule of FGFR or more.)
"389 (H[Orn]SYERLIFHGHEAPFWV[hCys]KKK; bridge 2-19; not fully specified (residue 2, bridges); printed as H-(Orn(acetyl))-SYERLIFHGHEAPFWV-(Hcy)-KKK) [compound 389]",Evaluation result of reductive stability,[1],A (The residual rate of cyclic peptide is 90% or more.)
same,Evaluation result of binding affinity to FGFR,[2],A (The binding amount is 0.7 molecules of the cyclic peptide/one molecule of FGFR or more.)
379 (HXSYERLQFHGHEAPFRVXVKKK; not fully specified; Description of Artificial Sequence: Cyclic peptide) [compound 379],Evaluation result of reductive stability,[1],A (The residual rate of cyclic peptide is 90% or more.)
same,Evaluation result of binding affinity to FGFR,[2],A (The binding amount is 0.7 molecules of the cyclic peptide/one molecule of FGFR or more.)
386 ({CH2CO}-HASYERLIFHGHEAPFWVCVKKK; thioether N-19 (inferred)) [compound 386],Evaluation result of reductive stability,[1],A (The residual rate of cyclic peptide is 90% or more.)
same,Evaluation result of binding affinity to FGFR,[2],B (The binding amount is 0.5 molecules of the cyclic peptide/one molecule of FGFR or more and less than 0.7 molecules of cyclic peptide/one molecule of FGFR.)
377 (HXSYERLQFHGHEAPFRVXVKKK; not fully specified; Description of Artificial Sequence: Cyclic peptide) [compound 377],Evaluation result of reductive stability,[1],A (The residual rate of cyclic peptide is 90% or more.)
same,Evaluation result of binding affinity to FGFR,[2],A (The binding amount is 0.7 molecules of the cyclic peptide/one molecule of FGFR or more.)
381 (HXSYERLQFHGHEAPFRVXVKKK; not fully specified; Description of Artificial Sequence: Cyclic peptide) [compound 381],Evaluation result of reductive stability,[1],A (The residual rate of cyclic peptide is 90% or more.)
same,Evaluation result of binding affinity to FGFR,[2],A (The binding amount is 0.7 molecules of the cyclic peptide/one molecule of FGFR or more.)
"390 ([Orn]SYERLIFHGHEAPFWV[hCys]VKKK; bridge 1-18; not fully specified (residue 1, bridges); printed as (Orn(acetyl))-SYERLIFHGHEAPFWV-(Hcy)-VKKK) [compound 390]",Evaluation result of reductive stability,[1],A (The residual rate of cyclic peptide is 90% or more.)
same,Evaluation result of binding affinity to FGFR,[2],C (The binding amount is 0.1 molecules of cyclic peptide/one molecule of FGFR or more and less than 0.5 molecules of cyclic peptide/one molecule of FGFR.)
376 (HXSYERLQFHGHEAPFRVXVKKK; not fully specified; Description of Artificial Sequence: Cyclic peptide) [compound 376],Evaluation result of reductive stability,[1],A (The residual rate of cyclic peptide is 90% or more.)
same,Evaluation result of binding affinity to FGFR,[2],A (The binding amount is 0.7 molecules of the cyclic peptide/one molecule of FGFR or more.)
"384 (H[Orn]SYERLIFHGHEAPFWV[hCys]VKKK; bridge 2-19; not fully specified (residue 2, bridges); printed as H-(Orn(acetyl))-SYERLIFHGHEAPFWV-(Hcy)-VKKK) [compound 384]",Evaluation result of reductive stability,[1],B (The residual rate of the cyclic peptide is 70% or more and less than 90%)
same,Evaluation result of binding affinity to FGFR,[2],A (The binding amount is 0.7 molecules of the cyclic peptide/one molecule of FGFR or more.)
